Assay results reported in patent US20110263454A1, “Methods of Identifying Functional Characteristics of Promoters, Transcription Modifying Proteins and Transcription Modulating Agents” (Salk Institute for Biological Studies, priority 2008, published 2011).

Key:
hMyoD promoter = assay: NHR-promoter luciferase screen, hMyoD promoter; type: cell-based, human; conditions: for Luc. act., normalized to lacZ / Normalized Luc. act., normalized to control: MyoD promoter reporter, co-transfected HR, without or with its ligand; for Normalized Luc. act., normalized to control: relative to control; for luciferase activity normalized to lacZ activity and to a control, hMyoD: hMyoD promoter-luciferase, CV-1 cells, NHR +/- ligand, control = 1.00
Summary of the method: (§1)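 CV-1 cells were co-transfected with 50 ng NHR (homodimer or NHR/RXR heterodimer), 100 ng promoter-luciferase construct and 50 ng LacZ. Luciferase was normalized to LacZ and to a no-NHR/no-ligand control.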

mPer1 promoter = assay: NHR-promoter luciferase screen, mPer1 promoter; type: cell-based, mouse; conditions: for Luc. act., normalized to lacZ / Normalized Luc. act., normalized to control: Per1 promoter reporter, co-transfected HR, with or without its ligand; for Normalized Luc. act., normalized to control: relative to control; for luciferase activity normalized to lacZ activity and to a control, mPer1: mPer1 promoter-luciferase, CV-1 cells, NHR +/- ligand, control = 1.00
Summary of the method: as §1

mUCP2 promoter = assay: NHR-promoter luciferase screen, mUCP2 promoter; type: cell-based, mouse; conditions: for Luc. act., normalized to lacZ / Normalized Luc. act., normalized to control: mUCP2 promoter reporter, co-transfected HR, with or without its ligand; for Normalized Luc. act., normalized to control: relative to control; for luciferase activity normalized to lacZ activity and to a control, mUCP2: mUCP2 promoter-luciferase, CV-1 cells, NHR +/- ligand, control = 1.00
Summary of the method: as §1

MCP-1 promoter = assay: NHR-promoter luciferase screen, MCP-1 promoter; type: cell-based; conditions: for Normalized Luc. act., normalized to control / Luc. act., normalized to lacZ: MCP-1 promoter reporter; for Normalized Luc. act., normalized to control: HR without or with its ligand, relative to control; for Luc. act., normalized to lacZ: hormone receptor (HR) without or with its ligand; for mMCP-1 promoter reporter activity: transcription factor +/- ligand, control = 1.00
Summary of the method: as §1

hCYP3A4 promoter = assay: NHR-promoter luciferase screen, hCYP3A4 promoter; type: cell-based, human; conditions: for Luc. act., normalized to lacZ / Normalized Luc. act., normalized to control: CYP3A4 promoter, HR/ligand component; for hCYP3A4 promoter reporter activity: transcription factor +/- ligand, control = 1.00
Summary of the method: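 CV-1 cells co-transfected with NHR homodimer or NHR/RXR heterodimer (pcDNA3.1, C-terminal V5H6 tag), promoter-luciferase construct and LacZ transfection control. Orphan receptors screened without ligand. Luciferase normalized to LacZ and to no-NHR/no-ligand control.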

hPPARg1 promoter = assay: NHR-promoter luciferase screen, hPPARg1 promoter; type: cell-based, human; conditions: for Luc. act., normalized to lacZ / Normalized Luc. act., normalized to control: PPARG1 promoter, hormone receptor with or without its ligand; for Normalized Luc. act., normalized to control: relative to control; for Results of assays of transcription factor (+/- ligand) with hPPARg1: Table 6d, luciferase activity relative to control (control = 1.00)
Summary of the method: as §1

Row | Molecule | Luc. act., normalized to lacZ (hMyoD promoter) | Normalized Luc. act., normalized to control (hMyoD promoter) | luciferase activity normalized to lacZ activity and to a control, hMyoD (hMyoD promoter) | Luc. act., normalized to lacZ (mPer1 promoter) | Normalized Luc. act., normalized to control (mPer1 promoter) | luciferase activity normalized to lacZ activity and to a control, mPer1 (mPer1 promoter) | Luc. act., normalized to lacZ (mUCP2 promoter) | Normalized Luc. act., normalized to control (mUCP2 promoter) | luciferase activity normalized to lacZ activity and to a control, mUCP2 (mUCP2 promoter) | Normalized Luc. act., normalized to control (MCP-1 promoter) | Luc. act., normalized to lacZ (MCP-1 promoter) | mMCP-1 promoter reporter activity (MCP-1 promoter) | Luc. act., normalized to lacZ (hCYP3A4 promoter) | Normalized Luc. act., normalized to control (hCYP3A4 promoter) | hCYP3A4 promoter reporter activity (hCYP3A4 promoter) | Luc. act., normalized to lacZ (hPPARg1 promoter) | Normalized Luc. act., normalized to control (hPPARg1 promoter) | Results of assays of transcription factor (+/- ligand) with hPPARg1 (hPPARg1 promoter)
1 | RARb: Retinoic acid receptor β (NR1B2), nuclear hormone receptor cDNA driver (protein, UniProt P10826 1-455, looked up) Retinoic acid receptor beta: MTTSGHACPVPAVNGHMTHYPATPYPLLFPPVIGGLSLPPLHGLHGHPPPSGCSTPSPATIETQSTSSEELVPSPPSPLPPPRVYKPCFVCQDKSSGYHYGVSACEGCKGFFRRSIQKNMIYTCHRDKNCVINKVTRNRCQYCRLQKCFEVGMSKESVRNDRNKKKKETSKQECTESYEMTAELDDLTEKIRKAHQETFPSLCQLGKYTTNSSADHRVRLDLGLWDKFSELATKCIIKIVEFAKRLPGFTGLTIADQITLLKAACLDILILRICTRYTPEQDTMTFSDGLTLNRTQMHNAGFGPLTDLVFTFANQLLPLEMDDTETGLLSAICLICGDRQDLEEPTKVDKLQEPLLEALKIYIRKRRPSKPHMFPKILMKITDLRSISAKGAERVITLKMEIPGSMPPLIQEMLENSEGHEPLTPSSSGNTAEHSPSISPSSVENSGVSQSPLVQ | 123.5 | 1.9 | 1.95 | 89.3 | 0.6 | 0.62 | 277.3 | 2.5 | 2.52 | 1.8 | 197.0 | 1.84 | 4.6 | 1.0 | 1.03 | 100.6 | 1.5 | 1.46
2 | RARg: Retinoic acid receptor γ (NR1B3), nuclear hormone receptor cDNA driver (protein, UniProt P13631 1-454, looked up) Retinoic acid receptor gamma: MATNKERLFAAGALGPGSGYPGAGFPFAFPGALRGSPPFEMLSPSFRGLGQPDLPKEMASLSVETQSTSSEEMVPSSPSPPPPPRVYKPCFVCNDKSSGYHYGVSSCEGCKGFFRRSIQKNMVYTCHRDKNCIINKVTRNRCQYCRLQKCFEVGMSKEAVRNDRNKKKKEVKEEGSPDSYELSPQLEELITKVSKAHQETFPSLCQLGKYTTNSSADHRVQLDLGLWDKFSELATKCIIKIVEFAKRLPGFTGLSIADQITLLKAACLDILMLRICTRYTPEQDTMTFSDGLTLNRTQMHNAGFGPLTDLVFAFAGQLLPLEMDDTETGLLSAICLICGDRMDLEEPEKVDKLQEPLLEALRLYARRRRPSQPYMFPRMLMKITDLRGISTKGAERAITLKMEIPGPMPPLIREMLENPEMFEDDSSQPGPHPNASSEDEVPGGQGKGGLKSPA | 104.5 | 1.6 | 1.65 | 120.3 | 0.8 | 0.84 | 242.5 | 2.2 | 2.21 | 1.6 | 167.8 | 1.57 | 4.0 | 0.9 | 0.91 | 80.1 | 1.2 | 1.16
3 | PPARd: Peroxisome proliferator activated receptor δ (NR1C2), cDNA driver (protein, UniProt Q03181 1-441, looked up) Peroxisome …: MEQPQEEAPEVREEEEKEEVAEAEGAPELNGGPQHALPSSSYTDLSRSSSPPSLLDQLQMGCDGASCGSLNMECRVCGDKASGFHYGVHACEGCKGFFRRTIRMKLEYEKCERSCKIQKKNRNKCQYCRFQKCLALGMSHNAIRFGRMPEAEKRKLVAGLTANEGSQYNPQVADLKAFSKHIYNAYLKNFNMTKKKARSILTGKASHTAPFVIHDIETLWQAEKGLVWKQLVNGLPPYKEISVHVFYRCQCTTVETVRELTEFAKSIPSFSSLFLNDQVTLLKYGVHEAIFAMLASIVNKDGLLVANGSGFVTREFLRSLRKPFSDIIEPKFEFAVKFNALELDDSDLALFIAAIILCGDRPGLMNVPRVEAIQDTILRALEFHLQANHPDAQYLFPKLLQKMADLRQLVTEHAQMMQRIKKTETETSLHPLLQEIYKDMY | 59.6 | 0.9 | 0.94 | 187.6 | 1.3 | 1.30 | 172.7 | 1.6 | 1.57 | 1.8 | 190.4 | 1.78 | 5.0 | 1.1 | 1.12 | 46.0 | 0.7 | 0.67
4 | FXR: Farnesoid X Receptor (NR1H4), cDNA driver (protein, UniProt Q96RI1 1-486, looked up) Bile acid receptor: MVMQFQGLENPIQISPHCSCTPSGFFMEMMSMKPAKGVLTEQVAGPLGQNLEVEPYSQYSNVQFPQVQPQISSSSYYSNLGFYPQQPEEWYSPGIYELRRMPAETLYQGETEVAEMPVTKKPRMGASAGRIKGDELCVVCGDRASGYHYNALTCEGCKGFFRRSITKNAVYKCKNGGNCVMDMYMRRKCQECRLRKCKEMGMLAECMYTGLLTEIQCKSKRLRKNVKQHADQTVNEDSEGRDLRQVTSTTKSCREKTELTPDQQTLLHFIMDSYNKQRMPQEITNKILKEEFSAEENFLILTEMATNHVQVLVEFTKKLPGFQTLDHEDQIALLKGSAVEAMFLRSAEIFNKKLPSGHSDLLEERIRNSGISDEYITPMFSFYKSIGELKMTQEEYALLTAIVILSPDRQYIKDREAVEKLQEPLLDVLQKLCKIHQPENPQHFACLLGRLTELRTFNHHHAEMLMSWRVNDHKFTPLLCEIWDVQ | 36.5 | 0.6 | 0.58 | 98.0 | 0.7 | 0.68 | 111.6 | 1.0 | 1.02 | 1.2 | 124.1 | 1.16 | 4.2 | 0.9 | 0.93 | 54.8 | 0.8 | 0.80
5 | PXR: Pregnane X Receptor (NR1I2), cDNA driver (protein, UniProt O75469 1-434, looked up) Nuclear receptor subfamily 1 …: MEVRPKESWNHADFVHCEDTESVPGKPSVNADEEVGGPQICRVCGDKATGYHFNVMTCEGCKGFFRRAMKRNARLRCPFRKGACEITRKTRRQCQACRLRKCLESGMKKEMIMSDEAVEERRALIKRKKSERTGTQPLGVQGLTEEQRMMIRELMDAQMKTFDTTFSHFKNFRLPGVLSSGCELPESLQAPSREEAAKWSQVRKDLCSLKVSLQLRGEDGSVWNYKPPADSGGKEIFSLLPHMADMSTYMFKGIISFAKVISYFRDLPIEDQISLLKGAAFELCQLRFNTVFNAETGTWECGRLSYCLEDTAGGFQQLLLEPMLKFHYMLKKLQLHEEEYVLMQAISLFSPDRPGVLQHRVVDQLQEQFAITLKSYIECNRPQPAHRFLFLKIMAMLTELRSINAQHTQRLLRIQDIHPFATPLMQELFGITGS | 50.6 | 0.8 | 0.80 | 186.7 | 1.3 | 1.30 | 119.1 | 1.1 | 1.08 | 2.0 | 209.7 | 1.96 | 8.8 | 2.0 | 1.98 | 63.3 | 0.9 | 0.92
